# In US20090029370, “REAL TIME NUCLEIC ACID DETECTION IN VIVO USING PROTEIN COMPLEMENTATION” (TRUSTEES OF BOSTON UNIVERSITY, published 2009):
# Legend:
# Details in all cases: protein: synthetic; tags: custom-synthesized peptide
# [1] = target: Rev peptide (printed HTLV-1 Rev); experiment: EMSA; cross-reactivity; 50 mM Tris-HCl pH 8.0, 50 mM KCl, 30 C
# λN peptide = target: T1, λN peptide (Bacteriophage lambda, UniProt P03045 SEQ:1-22); experiment: EMSA; 50 mM Tris-HCl pH 8.0, 50 mM KCl, 30 C
# T1 chain: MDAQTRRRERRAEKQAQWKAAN
# [2] = target: T2, Rex peptide (printed HIV-1 Rex in tables, HTLV-1 Rex in text) (Human T-cell leukemia virus type 1?); experiment: EMSA; 50 mM Tris-HCl pH 8.0, 50 mM KCl, 30 C
# T2 chain: MPKTRRRPRRSQRKRP
# [3] = target: T2, Rex peptide (printed HIV-1 Rex in …); experiment: EMSA; 50 mM Tris-HCl pH 8.0, 50 mM KCl, 30 C, ethidium bromide stain
# Excerpt: Experiments in vitro to choose aptamer-peptide pairs. Based on available data we chose three peptide/aptamer pairs; (i) […]; (ii) Bacterophage λN; and (iii) […] (see Table 1) and tested their binding affinity with cognate partner and cross-reactivity with two other RNA aptamers in vitro. We used non-radioactive gel-shift assay under conditions when fixed concentrations of RNA aptamer were allowed to form complexes with increasing ARM-peptide concentrations. We quantified the amount of the unbound RNA aptamer and the amount of the shifted complex (Table 1). […] At the same time, […] peptide did show some cross-reactivity with the two non-matched RNA aptamers.
# In Vitro Gel-Shift Assay. RNAs were first denatured by heating at 95° C. in buffer (50 mM pH 8.0 Tris-HCl, 50 mM KCl) for 3 minutes and then slowly cooled to room temperature to renature the RNAs. Renatured RNAs and peptides were mixed in a common buffer (50 mM Tris-HCl, pH 8.0, 50 mM KCl) at 30° C. for 15 minutes. Peptide-RNA aptamer complexes were analyzed using gel electrophoresis with 15% TBE gel. RNA aptamers and peptide-RNA aptamer complexes were stained with ethidium bromide.
Binder,binding result [1],binding result (λN peptide),binding result [2],binding result [3]
GGAUCCGGGCCCUGAAGAAGGGCCCUUUCCUUU (ssRNA) [λN aptamer (boxB)],binds,binds,no binding,
GGCUGGACUCGUACUUCGGUACUGGAGAAACAGCC (ssRNA) [anti-Rev aptamer],,no binding,no binding,
UAGGCGACGGUACGCAAGUACUCUUGCGCCGGCCUA (ssRNA) [anti-Rex aptamer],,no binding,,binds
